Read-outs that look alike come from different tables or passages of the source.
What was measured:
[1] = target: GABAA receptor γ2 subunit alone on COS7 cells (Rattus norvegicus (rat or mouse …, UniProt P18508)); assay: immunostaining of cells or tissue
[2] = target: T1, α4β3γ2 GABAA receptor on COS7 cells (Rattus norvegicus (gamma-2 rat or mouse …, UniProt P28471;P63079;P18508)); assay: immunostaining of cells or tissue
[3] = target: α1β2γ2 GABAA receptor on COS7 cells (Rattus norvegicus (gamma-2 rat or …, UniProt P62813;P63138;P18508)); assay: immunostaining of cells or tissue
[4] = target: T2, α3β3γ2 GABAA receptor on COS7 cells (Rattus norvegicus (gamma-2 rat or mouse …, UniProt P20236;P63079;P18508)); assay: immunostaining of cells or tissue
[5] = target: T3, α2β3γ2 GABAA receptor on COS7 cells (Rattus norvegicus (gamma-2 rat or mouse …, UniProt P23576;P63079;P18508)); assay: immunostaining of cells or tissue
[6] = target: T4, α5β3γ2 GABAA receptor on COS7 cells (Rattus norvegicus (gamma-2 rat or mouse …, UniProt P19969;P63079;P18508)); assay: immunostaining of cells or tissue
[7] = target: α1β3 GABAA receptor on COS7 cells (Rattus norvegicus (construct of ref. 7), UniProt P62813;P63079); assay: immunostaining of cells or tissue
[8] = target: GABAA receptor β3 subunit alone on COS7 cells (Rattus norvegicus (construct of ref. 7), UniProt P63079); assay: immunostaining of cells or tissue
[9] = target: α1β3γ2 GABAA receptor on COS7 cells (Rattus norvegicus (gamma-2 rat or …, UniProt P62813;P63079;P18508)); assay: immunostaining of cells or tissue
[10] = target: β3γ2 GABAA receptor subunits on COS7 cells (Rattus norvegicus (gamma-2 rat or …, UniProt P63079;P18508)); assay: immunostaining of cells or tissue
[11] = target: rat α1β3γ2 GABAA receptor on HEK293T cells (Rattus norvegicus, UniProt P62813;P63079;P18508); assay: flow cytometry on cells
[12] = target: rat α1β3 GABAA receptor on HEK293T cells (Rattus norvegicus, UniProt P62813;P63079); assay: immunostaining of cells or tissue
[13] = target: T1, α4β3γ2 GABAA receptor on COS7 cells; assay: immunostaining of cells or tissue; remark: listed apart in the source
[14] = target: T2, α3β3γ2 GABAA receptor on COS7 cells; assay: immunostaining of cells or tissue; remark: listed apart in the source
[15] = target: T3, α2β3γ2 GABAA receptor on COS7 cells; assay: immunostaining of cells or tissue; remark: listed apart in the source
[16] = target: T4, α5β3γ2 GABAA receptor on COS7 cells; assay: immunostaining of cells or tissue; remark: listed apart in the source

T2 sequence (P20236 29-493, chain 1 of 3): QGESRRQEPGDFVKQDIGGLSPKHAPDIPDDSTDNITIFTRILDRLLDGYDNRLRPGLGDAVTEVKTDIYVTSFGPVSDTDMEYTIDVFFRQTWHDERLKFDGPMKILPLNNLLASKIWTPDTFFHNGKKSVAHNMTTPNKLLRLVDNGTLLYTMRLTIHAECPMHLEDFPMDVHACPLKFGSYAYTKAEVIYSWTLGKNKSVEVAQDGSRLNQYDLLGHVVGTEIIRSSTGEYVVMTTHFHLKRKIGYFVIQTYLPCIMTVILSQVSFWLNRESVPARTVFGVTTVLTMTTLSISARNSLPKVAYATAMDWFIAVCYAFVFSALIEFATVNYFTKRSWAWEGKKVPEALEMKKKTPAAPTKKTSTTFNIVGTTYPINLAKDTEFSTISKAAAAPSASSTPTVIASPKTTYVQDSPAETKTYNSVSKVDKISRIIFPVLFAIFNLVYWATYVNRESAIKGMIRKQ
T2 sequence (P63079 26-473, chain 2 of 3): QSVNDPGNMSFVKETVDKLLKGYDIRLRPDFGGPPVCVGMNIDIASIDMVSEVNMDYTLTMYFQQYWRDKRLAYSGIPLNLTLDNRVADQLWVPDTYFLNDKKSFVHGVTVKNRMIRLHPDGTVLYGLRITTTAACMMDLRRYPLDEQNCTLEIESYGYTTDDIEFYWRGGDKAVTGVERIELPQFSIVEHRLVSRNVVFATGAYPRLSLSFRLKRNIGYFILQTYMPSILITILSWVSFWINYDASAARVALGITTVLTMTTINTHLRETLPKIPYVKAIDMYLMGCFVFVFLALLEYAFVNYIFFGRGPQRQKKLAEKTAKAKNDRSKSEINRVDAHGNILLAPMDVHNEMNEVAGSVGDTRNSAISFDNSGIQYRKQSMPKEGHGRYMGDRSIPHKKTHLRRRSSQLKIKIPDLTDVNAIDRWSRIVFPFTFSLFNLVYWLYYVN
T2 sequence (P18508 39-466, chain 3 of 3): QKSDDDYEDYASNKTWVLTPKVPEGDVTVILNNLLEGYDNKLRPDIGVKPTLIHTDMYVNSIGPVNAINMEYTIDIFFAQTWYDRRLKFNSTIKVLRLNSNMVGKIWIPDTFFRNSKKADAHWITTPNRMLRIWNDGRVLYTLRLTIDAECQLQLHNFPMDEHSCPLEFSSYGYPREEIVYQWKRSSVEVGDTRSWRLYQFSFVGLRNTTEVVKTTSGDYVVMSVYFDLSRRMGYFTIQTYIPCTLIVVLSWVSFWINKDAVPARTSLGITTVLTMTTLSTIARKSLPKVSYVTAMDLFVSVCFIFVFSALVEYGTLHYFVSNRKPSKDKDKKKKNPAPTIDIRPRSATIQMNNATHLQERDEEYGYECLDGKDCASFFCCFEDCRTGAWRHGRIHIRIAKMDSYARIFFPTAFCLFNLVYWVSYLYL
T1 sequence (P28471 36-552, chain 1 of 3): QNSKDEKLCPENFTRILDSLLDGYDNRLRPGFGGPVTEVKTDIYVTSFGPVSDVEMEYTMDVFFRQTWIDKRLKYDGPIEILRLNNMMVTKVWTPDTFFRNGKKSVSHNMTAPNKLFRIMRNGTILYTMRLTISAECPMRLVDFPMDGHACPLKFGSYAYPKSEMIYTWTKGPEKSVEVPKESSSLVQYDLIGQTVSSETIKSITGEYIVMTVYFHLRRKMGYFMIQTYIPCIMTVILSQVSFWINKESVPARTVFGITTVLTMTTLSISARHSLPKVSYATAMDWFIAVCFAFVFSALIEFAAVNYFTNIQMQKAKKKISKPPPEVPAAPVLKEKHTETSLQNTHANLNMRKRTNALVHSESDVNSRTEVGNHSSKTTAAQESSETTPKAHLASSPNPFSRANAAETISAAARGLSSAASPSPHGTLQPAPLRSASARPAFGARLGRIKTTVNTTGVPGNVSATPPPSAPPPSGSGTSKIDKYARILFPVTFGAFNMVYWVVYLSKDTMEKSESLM
T1 sequence (P63079 26-473, chain 2 of 3): as the sequence (P63079 26-473, chain 2 of 3) above
T1 sequence (P18508 39-466, chain 3 of 3): as the sequence (P18508 39-466, chain 3 of 3) above
α1β3γ2 GABAA receptor on COS7 cells (Rattus norvegicus, sequence (P62813 28-455, chain 1 of 3): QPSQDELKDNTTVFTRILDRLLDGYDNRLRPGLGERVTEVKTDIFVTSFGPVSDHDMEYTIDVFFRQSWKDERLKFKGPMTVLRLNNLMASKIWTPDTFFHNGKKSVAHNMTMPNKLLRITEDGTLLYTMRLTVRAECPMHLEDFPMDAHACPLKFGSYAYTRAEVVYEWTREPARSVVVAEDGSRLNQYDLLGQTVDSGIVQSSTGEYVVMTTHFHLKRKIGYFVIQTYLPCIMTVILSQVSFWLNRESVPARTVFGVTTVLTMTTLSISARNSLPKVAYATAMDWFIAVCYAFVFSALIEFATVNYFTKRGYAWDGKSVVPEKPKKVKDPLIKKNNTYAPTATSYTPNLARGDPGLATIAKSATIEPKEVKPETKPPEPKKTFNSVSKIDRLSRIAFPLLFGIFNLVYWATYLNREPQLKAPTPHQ
α1β3γ2 GABAA receptor on COS7 cells (Rattus norvegicus, sequence (P63079 26-473, chain 2 of 3): as the sequence (P63079 26-473, chain 2 of 3) above
α1β3γ2 GABAA receptor on COS7 cells (Rattus norvegicus, sequence (P18508 39-466, chain 3 of 3): as the sequence (P18508 39-466, chain 3 of 3) above
α1β3 GABAA receptor on COS7 cells, sequence (P62813 28-455, chain 1 of 2): as the sequence (P62813 28-455, chain 1 of 3) above
α1β3 GABAA receptor on COS7 cells, sequence (P63079 26-473, chain 2 of 2): as the sequence (P63079 26-473, chain 2 of 3) above

binding result [1]	binding result [2]	binding result [3]	binding result [4]	binding result [5]	binding result [6]	binding result [7]	binding result [8]	binding result [9]	binding result [10]	binding result [11]	binding result [12]	binding result [13]	binding result [14]	binding result [15]	binding result [16]	Binder
no binding (tested: 5 μg/ml)	no binding (tested: 5 μg/ml)	binds	no binding (tested: 5 μg/ml)	no binding (tested: 5 μg/ml)	no binding (tested: 5 μg/ml)	no binding (tested: 5 μg/ml)	no binding (tested: 5 μg/ml)	binds	no binding (tested: 5 μg/ml)	binds	–	–	–	–	–	human monoclonal GABAAR antibody #113-175 (antibody, V domains shown) VH: EVQLLESGEGLVQPGGSLRLSCAASGFTFKTYAMSWVRQAPGKGLEWVSAISGSGASTYYADFVEGRFTISRDNSKNTLYLQMNSLRAEDTAVYYCAKEPPAMVWFGGGYFDYWGQGTLVTVSS VL: EIVLTQSPATLSLSPGERATLSCRASQSVSSYLAWYQQKPGQAPRLLIYDASNRATGIPARFSGSGSGTDFTLTISSLEPEDFAVYYCQQRSNWPPYSFGQGTKLEIK
no binding (tested: 5 μg/ml)	–	–	–	–	–	binds	no binding (tested: 5 μg/ml)	binds	–	binds	binds	no binding	no binding	no binding	no binding	human monoclonal GABAAR antibody #113-115 (antibody, V domains shown) VH: QVQLVQSGAEVKKPGASVKVSCKASGYTFISYDINWVRQATGQGLEWMGGMDPKSGNTGYAQKFQGRVTMTTNTAISTAYMELSSLRSEDTAVYYCVRGEQSYDRTGYSDWFDPWGQGTLVTVSS VL: not shown
